In patent US8420311B2, “Method to block the infection by flaviviruses, molecules and uses” (Centro de Ingenieria Genetica y Biotecnologia, priority 2006, dated 2013):

How the values were obtained:
[1] = system: DV; assay: Inhibition of the infection of Vero cells with DV by pre-incubation of the virus with A2M; type: cell-based, dengue virus; conditions: incubation times with virus longer than 30 minutes (FIG. 20B)
Method: FIG. 20. Inhibition of the infection of Vero cells with DV by pre-incubation with A2M. Viral preparations were incubated 1 h at 25° C. (A and C) or the indicated time (B) with the proteins i. e. activated A2M (A2Mact), non-activated A2M (A2M no act) and a non-related protein (NR). The mixtures of the proteins with the virus were added to monolayers of Vero cells and incubated for 1 h at 37° C. The cell monolayers were washed to eliminate non-bound virus. Next, medium MEM supplemented with non-essential amino acids and 1% FBS, 1% CMC was added and the cells were incubated for 5 days at 37° C. in a CO2 incubator. To visualize the viral plaques, Vero cells were stained using Naphtol Blue Black. All experimental points were performed on duplicates.
To obtain further evidences of the interaction of DV with A2M, the two variants of the protein i.e. activated and non-activated were used in assays of inhibition of infection of Vero cells. The viral preparation was incubated with solutions of activated A2M of higher concentrations than the physiological concentrations reached by this variant of the protein. Solutions of equimolar concentration of non-activated A2M and a non-related protein were used as negative controls. […]

[2] = molecular target: T1, DIIIE2J (DIII from protein E of DV2) (Dengue virus type 2, UniProt P07564); assay: Direct binding between DIIIE2J and A2M measured by Biacore; design: species or system DV2 strain Jamaica 1409; conditions: A2M 0.3 to 3 μMol/L
T1 construct: made in house; host or cells: Escherichia coli BL21(DE3)
T1 sequence (P07564 568-687, looked up, natural form): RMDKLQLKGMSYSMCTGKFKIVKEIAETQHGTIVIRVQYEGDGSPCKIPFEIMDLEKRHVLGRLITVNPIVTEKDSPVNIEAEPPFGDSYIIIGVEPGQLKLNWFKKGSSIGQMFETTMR
Method: FIG. 6. Direct binding between DIIIE2J and A2M, measured by Biacore. Response curves obtained during and after the injection of (B) Monoclonal antibodies against DV serotype 2 (3H5) and against all FV (4G2); (C) Polyclonal mouse antibody preparations obtained by immunization with DV1 and DV2, including pre-immune sera and (D) A2M dilutions, at concentrations from 0.3 μMol/L to 3 μMol/L. The run was performed on PBS pH 7.4 at 25° C. The different A2M dilutions were loaded at a flow of 5 μL/min for 20 min. The response is represented in resonance units (RU) corrected for unspecific binding using the response from the channel without immobilized protein (less than 5% of the specific signal).
A cm5 chip (Biacore, Sweden) was used for the covalent immobilization of the DIIIE2J and LRP1 proteins. The immobilization was carried out at 25° C., with a flow of 5 μL/min and using HBS (Biacore, Sweden) as running buffer. The surface of the chip was activated by loading 35 μL of 0.2 Mol/L […] (EDC) and 0.05 Mol/L N-hydroxysuccinimide (NHS). Afterwards the proteins, dissolved in 10 mM sodium acetate buffer pH 4.5, were loaded into the system. At the end of the immobilization, 35 μL of 1 M ethanolamine pH 8 were loaded into the system in order to block any remaining free activated groups. The channel to be used as a negative control in each case received only the activating injections with the EDC:NHS solution and the blocking with ethanolamine, employing the same flow and injection volume. The results were analyzed using the BIAevaluation ver. 4.1 software application package (Biacore, Sweden).
In order to estimate the strength of the interaction between DIIIE2J and human A2M, 1600 RU of DIIIE2J were covalently immobilized on a CM5 chip (channel 1, FIG. 6A) (Biacore, Sweden), following the procedure described in the Materials and Methods section. […]

B1: non-activated A2M: non-activated variant of purified human A2M (protein)
chain: SVSGKPQYMVLVPSLLHTETTEKGCVLLSYLNETVTVSASLESVRGNRSLFTDLEAENDVLHCVAFAVPKSSSNEEVMFLTVQVKGPTQEFKKRTTVMVKNEDSLVFVQTDKSIYKPGQTVKFRVVSMDENFHPLNELIPLVYIQDPKGNRIAQWQSFQLEGGLKQFSFPLSSEPFQGSYKVVVQKKSGGRTEHPFTVEEFVLPKFEVQVTVPKIITILEEEMNVSVCGLYTYGKPVPGHVTVSICRKYSDASDCHGEDSQAFCEKFSGQLNSHGCFYQQVKTKVFQLKRKEYEMKLHTEAQIQEEGTVVELTGRQSSEITRTITKLSFVKVDSHFRQGIPFFGQVRLVDGKGVPIPNKVIFIRGNEANYYSNATTDEHGLVQFSINTTNVMGTSLTVRVNYKDRSPCYGYQWVSEEHEEAHHTAYLVFSPSKSFVHLEPMSHELPCGHTQTVQAHYILNGGTLLGLKKLSFYYLIMAKGGIVRTGTHGLLVKQEDMKGHFSISIPVKSDIAPVARLLIYAVLPTGDVIGDSAKYDVENCLANKVDLSFSPSQSLPASHAHLRVTAAPQSVCALRAVDQSVLLMKPDAELSASSVYNLLPEKDLTGFPGPLNDQDDEDCINRHNVYINGITYTPVSSTNEKDMYSFLEDMGLKAFTNSKIRKPKMCPQLQQYEMHGPEGLRVGFYESDVMGRGHARLVHVEEPHTETVRKYFPETWIWDLVVVNSAGVAEVGVTVPDTITEWKAGAFCLSEDAGLGISSTASLRAFQPFFVELTMPYSVIRGEAFTLKATVLNYLPKCIRVSVQLEASPAFLAVPVEKEQAPHCICANGRQTVSWAVTPKSLGNVNFTVSAEALESQELCGTEVPSVPEHGRKDTVIKPLLVEPEGLEKETTFNSLLCPSGGEVSEELSLKLPPNVVEESARASVSVLGDILGSAMQNTQNLLQMPYGCGEQNMVLFAPNIYVLDYLNETQQLTPEVKSKAIGYLNTGYQRQLNYKHYDGSYSTFGERYGRNQGNTWLTAFVLKTFAQARAYIFIDEAHITQALIWLSQRQKDNGCFRSSGSLLNNAIKGGVEDEVTLSAYITIALLEIPLTVTHPVVRNALFCLESAWKTAQEGDHGSHVYTKALLAYAFALAGNQDKRKEVLKSLNEEAVKKDNSVHWERPQKPKAPVGHFYEPQAPSAEVEMTSYVLLAYLTAQPAPTSEDLTSATNIVKWITKQQNAQGGFSSTQDTVVALHALSKYGAATFTRTGKAAQVTIQSSGTFSSKFQVDNNNRLLLQQVSLPELPGEYSMKVTGEGCVYLQTSLKYNILPEKEEFPFALGVQTLPQTCDEPKAHTSFQISLSVSYTGSRSASNMAIVDVKMVSGFIPLKPTVKMLERSNHVSRTEVSSNHVLIYLDKVSNQTLSLFFTVLQDVPVRDLKPAIVKVYDYYETDEFAIAEYNAPCSKDLGNA
increase of viral infection [1]: ≤ 50%

B2: A2M: human Alfa 2-macroglobulin purified from human plasma, Seq. ID. 2 (protein, listed as Homo sapiens)
chain: MGKNKLLHPSLVLLLLVLLPTDASVSGKPQYMVLVPSLLHTETTEKGCVLLSYLNETVTVSASLESVRGNRSLFTDLEAENDVLHCVAFAVPKSSSNEEVMFLTVQVKGPTQEFKKRTTVMVKNEDSLVFVQTDKSIYKPGQTVKFRVVSMDENFHPLNELIPLVYIQDPKGNRIAQWQSFQLEGGLKQFSFPLSSEPFQGSYKVVVQKKSGGRTEHPFTVEEFVLPKFEVQVTVPKIITILEEEMNVSVCGLYTYGKPVPGHVTVSICRKYSDASDCHGEDSQAFCEKFSGQLNSHGCFYQQVKTKVFQLKRKEYEMKLHTEAQIQEEGTVVELTGRQSSEITRTITKLSFVKVDSHFRQGIPFFGQVRLVDGKGVPIPNKVIFIRGNEANYYSNATTDEHGLVQFSINTTNVMGTSLTVRVNYKDRSPCYGYQWVSEEHEEAHHTAYLVFSPSKSFVHLEPMSHELPCGHTQTVQAHYILNGGTLLGLKKLSFYYLIMAKGGIVRTGTHGLLVKQEDMKGHFSISIPVKSDIAPVARLLIYAVLPTGDVIGDSAKYDVENCLANKVDLSFSPSQSLPASHAHLRVTAAPQSVCALRAVDQSVLLMKPDAELSASSVYNLLPEKDLTGFPGPLNDQDDEDCINRHNVYINGITYTPVSSTNEKDMYSFLEDMGLKAFTNSKIRKPKMCPQLQQYEMHGPEGLRVGFYESDVMGRGHARLVHVEEPHTETVRKYFPETWIWDLVVVNSAGVAEVGVTVPDTITEWKAGAFCLSEDAGLGISSTASLRAFQPFFVELTMPYSVIRGEAFTLKATVLNYLPKCIRVSVQLEASPAFLAVPVEKEQAPHCICANGRQTVSWAVTPKSLGNVNFTVSAEALESQELCGTEVPSVPEHGRKDTVIKPLLVEPEGLEKETTFNSLLCPSGGEVSEELSLKLPPNVVEESARASVSVLGDILGSAMQNTQNLLQMPYGCGEQNMVLFAPNIYVLDYLNETQQLTPEVKSKAIGYLNTGYQRQLNYKHYDGSYSTFGERYGRNQGNTWLTAFVLKTFAQARAYIFIDEAHITQALIWLSQRQKDNGCFRSSGSLLNNAIKGGVEDEVTLSAYITIALLEIPLTVTHPVVRNALFCLESAWKTAQEGDHGSHVYTKALLAYAFALAGNQDKRKEVLKSLNEEAVKKDNSVHWERPQKPKAPVGHFYEPQAPSAEVEMTSYVLLAYLTAQPAPTSEDLTSATNIVKWITKQQNAQGGFSSTQDTVVALHALSKYGAATFTRTGKAAQVTIQSSGTFSSKFQVDNNNRLLLQQVSLPELPGEYSMKVTGEGCVYLQTSLKYNILPEKEEFPFALGVQTLPQTCDEPKAHTSFQISLSVSYTGSRSASNMAIVDVKMVSGFIPLKPTVKMLERSNHVSRTEVSSNHVLIYLDKVSNQTLSLFFTVLQDVPVRDLKPAIVKVYDYYETDEFAIAEYNAPCSKDLGNA
nature of the interaction between both proteins [2]: saturable and reversible | Kd ([2]; immobilized DIIIE2J, PBS pH 7.4 at 25° C., read-out: apparent Kd): ~100 nM
